Reference: article PMC7261417

Target: T1, aquaporin-Z, P60844
T1 chain: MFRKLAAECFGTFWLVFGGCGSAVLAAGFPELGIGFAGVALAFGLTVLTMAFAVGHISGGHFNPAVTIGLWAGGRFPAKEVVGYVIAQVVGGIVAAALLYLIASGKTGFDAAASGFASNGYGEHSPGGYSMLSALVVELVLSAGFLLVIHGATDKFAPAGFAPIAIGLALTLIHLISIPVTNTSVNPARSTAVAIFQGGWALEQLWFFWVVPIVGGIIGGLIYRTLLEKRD
Assay: native MS
Conditions: remark: other sources report otherwise

B1: aquaporin-Z, P60844 1-231 (natural protein)
chain: MFRKLAAECFGTFWLVFGGCGSAVLAAGFPELGIGFAGVALAFGLTVLTMAFAVGHISGGHFNPAVTIGLWAGGRFPAKEVVGYVIAQVVGGIVAAALLYLIASGKTGFDAAASGFASNGYGEHSPGGYSMLSALVVELVLSAGFLLVIHGATDKFAPAGFAPIAIGLALTLIHLISIPVTNTSVNPARSTAVAIFQGGWALEQLWFFWVVPIVGGIIGGLIYRTLLEKRD
modifications: here or on the partner: multiple N-terminal formylation modifications; multiple N-terminal formylation modifications
stoichiometry N: 4
